For the data set the following is noted: Rattus norvegicus, pH 7.2, 20 °C, CD, Potassium phosphate 20 mM, reversible: yes, whole UniProt chain shown.

Values joined by “and” are separate entries in the source; they are usually repeats but may differ in a detail not shown here. Equal values may be shown once.

B1: Fatty acid-binding protein, brain wild type, P55051 (protein)
chain: MVDAFCATWKLTDSQNFDEYMKALGVGFATRQVGNVTKPTVIISQEGGKVVIRTQCTFKNTEISFQLGEEFEETSIDDRNCKSVIRLDGDKLIHVQKWDGKETNCVREIKDGKMVVTLTFGDVVAVRCYEKA
For B1, the denaturant m value by setting is: (DimethylUrea, NaCl 1 M) 1.81 kcal/mol/M; (GdnHCl) 4.21 kcal/mol/M; (GdnSCN) 14 kcal/mol/M; (Urea) 1.82 kcal/mol/M and 2.17 kcal/mol/M. In addition, the “denaturant midpoint (higher = more stable)” value reads like this: (DimethylUrea, NaCl 1 M) 5.36 M; (GdnHCl) 1.33 M; (GdnSCN) 0.73 M; (Urea) 5.43 M and 5.79 M. In addition, the unfolding free energy reads like this: (DimethylUrea, NaCl 1 M) 9.71 kcal/mol; (GdnHCl) 5.58 kcal/mol; (GdnSCN) 10.2 kcal/mol; (Urea) 9.91 kcal/mol and 12.6 kcal/mol.

(Values after FireProtDB (doi:10.1021/bi00493a013).)
